These results are taken from US20210061908A1 (IOMX THERAPEUTICS, published 2021).

Some results are limits rather than exact numbers.

The target in experiment [1] is T1, extracellular domain (ECD) of human IGSF11 (VSIG3), biotinylated (human, UniProt Q5DX21 23-241, biotinylated (site not stated)).
T1 construct: also called human IGSF11 protein
T1 sequence: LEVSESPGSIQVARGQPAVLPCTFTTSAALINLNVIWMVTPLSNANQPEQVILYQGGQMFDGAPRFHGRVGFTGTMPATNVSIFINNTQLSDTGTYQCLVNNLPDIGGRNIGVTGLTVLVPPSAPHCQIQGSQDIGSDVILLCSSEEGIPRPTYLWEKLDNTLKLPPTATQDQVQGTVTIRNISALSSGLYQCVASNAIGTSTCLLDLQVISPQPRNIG
Kind of experiment: ELISA, scFv; RFU grade (*** >1.0, ** 0.5-1.0, * 0.1-0.5). In general terms: In an ELISA, binding on a coated surface is turned into a signal by an enzyme label.

Experiment [2] addresses T2, extracellular domain (ECD) of murine IGSF11, biotinylated (mouse, UniProt P0C673 23-240, biotinylated (site not stated)).
T2 construct: also called Mouse IGSF11; murine IGSF11 protein
T2 sequence: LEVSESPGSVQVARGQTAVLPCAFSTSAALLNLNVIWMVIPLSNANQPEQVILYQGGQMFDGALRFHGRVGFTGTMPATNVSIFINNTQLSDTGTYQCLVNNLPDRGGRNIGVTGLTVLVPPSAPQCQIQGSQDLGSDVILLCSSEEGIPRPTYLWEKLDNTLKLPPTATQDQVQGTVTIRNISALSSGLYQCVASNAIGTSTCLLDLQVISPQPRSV
The description is as above.

B1: A-035 (scFv format) (scFv, V domains shown)
VH: QVQLVQSGAEVKKPGASVKVSCKASGYTFTGYYMHWVRQAPGQGLEWMGWINPNSGNTGYAQKFQGRVTMTRNTSISTAYMELSSLRSEDTAVYYCARGRLERGYWYFDLWGRGTLVTVSS
VL: NFMLTQPHSVSESPGRTVTISCTRSSGSITSNYVQWYQQRPGSAPTILIYEDKERPSEVPDRFSGSIDISSNSASLTISGLKTEDEADYYCQSYGGTSQGVLFGGGTKVTVL
notes: scFv
For the molecule B1, the “relative fluorescent units (RFU), ELISA” value in experiment [1] was 0.5 to 1 rfu; in experiment [2], > 1 rfu.

B2: A-001 (scFv format) (scFv, V domains shown)
VH: EVQLVESGGGLVKPGGSLRLSCAASGFTFSSYSMNWVRQAPGKGLEWVSSISSSSSYIYYADSVKGRFTISRDNAKNSLYLQMNSLRAEDTAVYYCVRSIIVQALGITSVFDIWGQGTMVTVSS
VL: AIRLTQSPSSLSASVGDRVTISCRASQIISNHLNWYQQKPGKAPKLLIYAASRLQTGVPSRFSGSGSETDYTLTISSLQPEDFATYYCQQSYSNPRTFGHGTKVEIK
notes: scFv
As to B2, the “relative fluorescent units (RFU), ELISA” value in experiment [1] and in experiment [2] was > 1 rfu each time.

B3: A-031 (scFv format) (scFv, V domains shown)
VH: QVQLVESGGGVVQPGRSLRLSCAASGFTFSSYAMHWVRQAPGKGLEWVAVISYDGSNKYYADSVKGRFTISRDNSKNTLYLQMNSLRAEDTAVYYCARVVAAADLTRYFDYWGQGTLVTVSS
VL: EIVLTQSPGTVSLSPGERATLSCRASQSVPKNYLAWFQQKPGQAPRLVIHTASSRAPGIPDRFTGSGSGTDFTLTISRLEPEDFAVYYCQQYGTSPNTFGQGTKLDIK
notes: scFv
In the case of B3, the “relative fluorescent units (RFU), ELISA” value in experiment [1] and in experiment [2] was 0.1 to 0.5 rfu in each case.

B4: A-034 (scFv format) (scFv, V domains shown)
VH: QMQLVQSGGGLVKPGGSLRLSCAASGFTFSSYTMNWVRQAPGKGLEWVSSISSIGTYIYYADSVKGRFTISRDNAKNSLYLQMNSLRAEDTAVYYCARVLLSGSYYGYFDSWGQGTLVTVSS
VL: QSVLTQPPSVSGAPGQRVTISCTGSSSNIGAGYDVHWYQQLPGTAPKLFIYGNSNRPSGVPDRFSGSKSGTSASLAITGLQAEDEADYYCQSYDSSLSGYVFGTGTKVTVL
notes: scFv
In the case of B4, the “relative fluorescent units (RFU), ELISA” value in experiment [1] is > 1 rfu; in experiment [2], 0.5 to 1 rfu.

B5: A-004 (scFv format) (scFv, V domains shown)
VH: EVQLVESGGGLVKPGGSLRLSCAASGFTFSSYSMNWVRQAPGKGLEWVSSISSSSSYIYYADSVKGRFTISRDNAKNSLYLQMNSLRAEDTAVYYCARGQLLWFGESALIDAFDIWGQGTMVTVSS
VL: EIVLTQSPSSLSASVGDRVTITCRASQSISSYLNWYQLKPGKAPKLLIYAASILQSGVPSRFSGSGSGTDFTLTISSLQPEDFAAYYCQQSYSTPRTFGQGTKLEIK
notes: scFv
In the case of B5, the “relative fluorescent units (RFU), ELISA” value was 0.5 to 1 rfu in experiment [1] and > 1 rfu in experiment [2].

B6: A-033 (scFv format) (scFv, V domains shown)
VH: QVQLVQSGAEVKKPGASVKVSCKASGYTFTSYGISWVRQAPGQGLEWMGWISAYNGNTNYAQKLQGRVTMTTDTSTSTAYMELRSLRSDDTAVYYCARDHSIVGATTFDYWGQGTLVTVSS
VL: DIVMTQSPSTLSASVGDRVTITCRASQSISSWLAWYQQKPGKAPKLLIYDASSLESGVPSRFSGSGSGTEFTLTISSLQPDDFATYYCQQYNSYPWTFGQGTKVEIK
notes: scFv
Turning to B6, the “relative fluorescent units (RFU), ELISA” value in experiment [1] and in experiment [2] was 0.1 to 0.5 rfu throughout.

B7: A-012 (scFv format) (scFv, V domains shown)
VH: EVQLLESGGGLIQPGGSLRLSCAVSGFTVSSNYMSWVRQAPGKGLEWVSVIYSGGSTYYADSVKGRFTISRDNSKNTLYLQMNSLRAEDTAVYYCARGNPYYYGDLQVNFDYWGQGTLVTVSS
VL: QAVVTQEPSLTVSPGGTVTLTCASSTGAVTSGYYPNWFQQKPGQAPRALIYSTSNKHSWTPARFSGSLLGGKAALTLSGVQPEDEAEYYCLLYYGGAWVFGGGTKLTVL
notes: scFv
B7: the “relative fluorescent units (RFU), ELISA” value in experiment [1] and in experiment [2] was 0.5 to 1 rfu throughout.

B8: A-005 (scFv format) (scFv, V domains shown)
VH: EVQLVESGGGLIQPGGSLRLSCAASGFTVSSNYMSWVRQAPGKGLEWVSVIYSGGSTYYADSVKGRFTISRDNSKNTLYLQMNSLRAEDTAVYYCARGNPYYYGDLQVNFDYWGQGTLVTVSS
VL: QAVVTQEPSLTVSPGETVTLTCASSTGAVTSGYYPNWFQQRPGQAPRALIYSTSNKDSWTPARFSGSLLGGKAALTLSGVQPEDEAEYYCLLYYGGAWVFGGGTKLTVL
notes: scFv
Turning to B8, the “relative fluorescent units (RFU), ELISA” value lay in the range of 0.5 to 1 rfu in experiment [1] and 0.1 to 0.5 rfu in experiment [2].

B9: A-002 (scFv format) (scFv, V domains shown)
VH: EVQLVESGGGLIQPGGSLRLSCAASGFTVSSNYMSWVRQAPGKGLEWVSVIYSGGSTYYADSVKGRFTISRDNSKNTLYLQMNSLRAEDTAVYYCARGNPYYYGDLQVNFDYWGQGTLVTVSS
VL: QAVVTQEPSLTVSPGGTVTPTCGSSTGAVTSGNLPNWFQQKPGQAPRALIYSTSNKHSWTPARISGSLLGGKAALTLSGVQPEDEAEYYCLLYYGGAWVFGGGTKLTVL
notes: scFv
As for B9, the results for the “relative fluorescent units (RFU), ELISA” value in experiment [1] and in experiment [2] were 0.5 to 1 rfu and 0.1 to 0.5 rfu, respectively.

B10: A-006 (scFv format) (scFv, V domains shown)
VH: EVQLVESGGGLIQPGGSLRLSCAASGFTVSSNYMSWVRQAPGKGLEWVSVIYSGGSTYYADSVKGRFTISRDNSKNTLYLQMNSLRAEDTAVYYCARGNPYYYGDLQVNFDYWGQGTLVTVSS
VL: QAVVTQEPSLTVSPGGTVTLTCASSTGAVTSGYYPNWFQQKPGQAPRPLIYSTSNKHSWTPARFSGSLLGGKAALTLSGVQPDDEAEYYCLLYYGGDWVFGGGTKLTVL
notes: scFv
With B10, the “relative fluorescent units (RFU), ELISA” value in experiment [1] and in experiment [2] was 0.5 to 1 rfu throughout.

B11: A-032 (scFv format) (scFv, V domains shown)
VH: QVQLVQSGAEVKKPGASVKVSCKASGYTFTGYYMHWVRQAPGQGLEWMGWMNPNSGNTGYAQKFQGRVTMTRNTSISTAYMELSSLRSEDTAVYYCARGGQQQLVLDDYWGQGTLVTVSS
VL: not shown
B11: the “relative fluorescent units (RFU), ELISA” value in experiment [1] and in experiment [2] was 0.1 to 0.5 rfu throughout.

B12: A-037 (scFv format) (scFv, V domains shown)
VH: QVQLVQSGAEVKKPGASVKVSCKASGYTFTGYYMHWVRQAPGQGLEWMGWINPNSGNTGYAQKFQGRVTMTRNTSISTAYMELSSLRSEDTAVYYCARGGQQQLVLDDYWGQGTLVTVSS
VL: NFMLTQPHSVSESPGKTVTISCTGSSGSIASNYVQWYQQRPGSAPTTVIYEDNQRPSGVPDRFSGSIDSSSNSASLTISGLKTEDEADYYCQSYDSSNQRVFGGGTKLTVL
notes: scFv
On to B12, for which the “relative fluorescent units (RFU), ELISA” value in experiment [1] and in experiment [2] was 0.1 to 0.5 rfu each time.

B13: A-030 (scFv format) (scFv, V domains shown)
VH: QVQLVQSGAEVKKPGASVKVSCKASGYTFTGYYMHWVRQAPGQGLEWMGWINPNSGNTGYAQKFQGRVTMTRNTSISTAYMELSSLRSEDTAVYYCARGGQQQLVLDDYWGQGTLVTVSS
VL: DIQLTQSPSTLSASVGDRVTITCRASQSIGGWLAWYQHKPGKAPKLLIYAASSLQSGVPSRFSGSGSGTDFTLTISSLQPEDFATYYCRQSYSTPPTFGQGTKVEIK
notes: scFv
Consider B13, for which the “relative fluorescent units (RFU), ELISA” value in experiment [1] and in experiment [2] was 0.1 to 0.5 rfu throughout.

B14: A-036 (scFv format) (scFv, V domains shown)
VH: QVQLVQSGAEVKKPGASVKVSCKASGYTFTGYYMHWVRQAPGQGLEWMGWINPNSGGTNYAQKFQGRVTMTRNTSISTAYMELSSLRSEDTAVYYCARGGQQQLVLDDYWGQGTLVTVSS
VL: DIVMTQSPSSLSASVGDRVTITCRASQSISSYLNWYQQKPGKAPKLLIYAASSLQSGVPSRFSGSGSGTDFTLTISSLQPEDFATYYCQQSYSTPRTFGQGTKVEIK
notes: scFv
Take B14: the “relative fluorescent units (RFU), ELISA” value in experiment [1] and in experiment [2] was 0.1 to 0.5 rfu throughout.
